Test results taken from the DeepSol protein solubility set.

Assay: soluble on expression in E. coli; label from the status in PepcDB or PDB records

MPIDDNIIIADEAVIHPGDLHEDFIRSSGPGGQNVNKVATAVQLRFDAANAAGLSERVRARTIKLAGQRATKDGVIVIEAGRFRTQEQNRADARARLTALVAKAAEPPPPPRKKTRPSKGAVERRLKSKAGRGTIKKLRGRVGDDLEHHHHHH
soluble on expression in E. coli: soluble

MSLASRRTDLIGMIVPDARQPFFGEMAHAVEQAAAERGKMVLVGNSDYVAEREVHYLRAFLGMRVSGLILVSHALNNQAAAEIEAWDARVVLLHERPELIDDVAVVTDDIGGAQLATRHLLEHGYAYVACLGGTAETPSVGDPVSDHVEGWRRAMQEAGIPTEGKLFEAPYNRYDAYQVGLELLAGPNRPPAIFCSTDDQAIGVLRAARELRIDVPGELAVAGFDDVKEAALTDPPLTTIASDRSAMARAAVDLVLDDGLRVAGSRRERLKLFPSRLVVRRSCGCAPQETPGSEGHHHHHH
soluble on expression in E. coli: soluble

MGSDKIHHHHHHMEFNDQRVRYFFEAARLGGVRAAADRMDIAASAVSRQIRQLEMELGATLFERHRRGFQPTEAGRLLLDYHRKQLSEQEAVLTALRELKGIHRGHVSVVTGGGVISDLIDAIHPFSQRYPQITVGIDIRGTNDIVRAVLEDRAHIGVVFYTAPNPLLRVHRSSIQPLYAVAAPDHPLARAERPIRLEELARHKLALPDVSFGVRQILRDAEKAEQCQLEPAIVTNSFRVMVEYALTGQAATVQPRFSVRRELESGQLQAIPIQQRNLQQAEVHLITHHGRRLSPAAARLLETLAASMPAFRDSAVTP
soluble on expression in E. coli: not soluble

MGSDKIHHHHHHMKIDDIDAFVAVIRCQSISHAAESLDLTQPAITRRVQNFEQALGVELFDRNTKPLKPTPMGIQVYQKCLAILREMDSLRELVASDTPPSGLLRLGVPQTIGDVVLLDALKQLRGEFPDLRAQVSTGWGSHLIGKIENGELDAAAALFPAGKIFPDNIVGQSIGKMELVVVCAKGSVPKKPGKLADCYEQGWVLNPDGCGFRAGLQRTLTDQGLSMKVNLETFGTELQLGLVADGMGLGLVPRPLLERSAHREQLVVLPLKDFKPVMDLWLFYPRFLGNLQAPVEAFGALVARSLKPLSAAA
soluble on expression in E. coli: not soluble

MTRGLDYYEVMGLTRSANDIDIRRAYRRLALKYHPDINKDGAAGDEFLRICEAYEVLCDPKTKGFYDLYGEDALKDGISDGNGGLKGPMYRFNPEESPKAVFERFFGTANPYEALEALSNQFESMTSEEAPARGKNKVYPLELTLEEIFHGCLKKVAHKRKVLLFSGEYVEEERQLTVDVKPGLPTGTRFVFEGEGNKTPKKEPGPVVFVLKPKPHPRFVRRGSDLVHKVTLPLHHALIGTTLDIRTLDDRDLKVPISDIMRPGSSLTVPGEGMPLPATPSARGNLVIEIDLLFPTHLTETQKMLLRSAFF
soluble on expression in E. coli: soluble

SLNIKLKDFTMINAVSSLAPVQSLGNYKRVEKNEKVENNEAALDRVAEIKKAIENNQYKINLHETSHKMAKDLLGIS
soluble on expression in E. coli: soluble

VPDKSPDLLFELLNDFFTQLLSAGESESMDNLIELDLTFSQVRMLFALVQHGEPLPINEVAERLRLSVAAAGRNVDQLVKLGLVVRREDERDRRVKRVSLSEAGHKVATQHIECKRDQLRRFAWRVPEIERTRLIEALQPILAGESLRELNQEILG
soluble on expression in E. coli: not soluble

MRRLLWLLTLGALAVALTACPRKAEEEAATETAPAEETSLPGANVRVGLAFDAGGKFDRSFNQSAWEGAQRAAQELGVQIFDFEPADPSQVGQGIRTFAEEGFDLVIGVGFANEPAITATAKEFPNVKFAVIDAVPGEGQLPNALGVVFREHEGSFLVGYVAGKLSRTGVVGFIGGMDIPLIHKFEAGFRAGAEYAFQEDGIQGRVLVGYVGNTPAAWNDPAKAKEIASSQARQGADIIYAAAGGSGLGLIDFVKEEMCLREGGAVRFVREDRFADVPKYPAYEEKCGEGTTPLFFIGVDANQNYLGDTDNDPTTLNHGLTSMVKRVDVAVYDTIKSVVDGTFQGGVKDLGLAEEGVGYALDEYNQALIPEEVKARLEELKQAIINGEIQVPETR
soluble on expression in E. coli: soluble

MRHMMQLKAPFFSDNATDLPFWWEEARPSPVQTDDLPSSTEVAIIGAGFTGLNAALVLARAGKQVSVFDADEPGYGASSRNGGFLGPGWAFFDTGMQYGADTARQIVEESFHSLQHVKDVVAMEKIDCDLKEVGYFKGAMTPRVYDAIGRNMDRIRKIIPCNVYMVPRSEQHKEIGSDLYHGGVAMPGYCGIHPAKYVKGLAEAANRLGVKIYSNARVSDLEGKNGGFSFKVGSRTIAARQILLAANGYSGSLLPHLKRRIIPVGSGLIATEQLPVEVMDRLMPKRQMLAGSQRVVTYYRPSPDNTRIVFGGRVLNMSGAHESAVANAKYIRSLLLAVFPELASAKITNYWHGQLGFTFDHLPHVQTIDGMYFAGGYNGTGVARASWLGSRVAYEMLGSDLGKTVYRNLPFDGRRFYNGKPYFLPLAVWYYGMLDKWDQRLEHHHHHH
soluble on expression in E. coli: not soluble

MGSDKIHHHHHHGKKDKEKIIDDFKVAVVTQPLSENKVQYNMVEEMAKEYEEENKIDKDKDGQTKVKQTIKHVVLPENFTSNIDSAINKIVKLADDKEVQAIVVSTDQAGLLPALQKVKEKRPEIITISAPMGDDKNQLSQFVDVNLGVSAEERGKVLAERSKEMGAKAFIHYASTDDLKDVNIAKRLEMIKETCKNIGLPFVQVNTPNINTEEDKNKVKQFLNEDIEKQVKKYGKDINVFGVNEYMDEVILTKALELKYIVAEQSNPSPIQTYPSVMGLKISEKDAQNYDKINDMISEKAKAFGMSNRLGGYPMPMDAFLPSLAIYLATEMVKQDLTQEDVCDPDYLEAFTELRFGIGSEFTPLTEVLYNYQSVILSQLIY
soluble on expression in E. coli: not soluble

MEAGFKRKVDYLDRPERSEVLSPEDFLQAMPIGKTASILDLGAGTGFLTIPAAKLVDNTVFALDLDAKMLELIESKAKEAGLANVETLEASMDDIPLEANSVDVVLASLVLHEADSLADVLREVSRVVKTGGYFASLEFDTKGTDLKGPPMEIQISAEKLKEELAGFGFEVVKNWQLDEGMYVSIAVKKLEHHHHHH
soluble on expression in E. coli: not soluble

MASDTPGFYMDKLNKYRQMHGVAITYKELSTSGPPHDRRFTFQVLIDEKEFPEAKGRSKQEARNAAAKLAVDILDNENKVDCHT
soluble on expression in E. coli: soluble

MSLSAELLLNVTPSETRVAMIEGGILQEIHIEREAKRGIVGNIYKGKVSRVLPGMQAAFVDIGLDKAAFLHASDIVPHTECVAESEKQQFQVRDISELVRQGQDIVVQVVKDPLGTKGARLTTDITLPSRYLVFMPGASHVGVSQRIESEAERERLKKIVSHYCDEHGGFIIRTAAEGANEKELTQDAAFLKRLWSKVIERRSKYKNRSMLYGELGLAQRILRDFVGTELTKILIDSRQEFENLKEFTSEYVPELTAKLELYHGDKPIFDMYDTENEIQRSLERKVELKSGGYLIIDQTEAMTTIDINTGAFVGRRNLEETIFNTNIEATQAIARQLRLRNLGGIIIIDFIDMASDEHRKRVLTSLETALMKDRVKTNINGFTQLGLVEMTRKRTRESIEHVLCSTCPTCEGRGSVKTVETVCFEILREITRVNRAYDADKFVVYASPAVADTLQGEESHALAELEVFIGKEVRIQAEPLYNQEQFDVVMMEGGSHHHHHH
soluble on expression in E. coli: soluble

MGSDKIHHHHHHMNTLKKITNNISKVIIGKDESIELAAIALIAKGHILLEDVPGTGKTTLAKSLAKSVDAKFQRIQFTADTLPGDVIGLEYFNVKESDFKTRLGPIFANIVLVDEINRAVPRTQSSLLEVMEERTVTIAKQTHSLPEPFLVIATQNPLESAGTFPLPDAQLDRFLLTIRQGYPTREAEKEMMNRFQMNDPLETLHSIISSEEIITMQKRAREVLVGNDVQDYLLEIIEATRKHELIEIGVSPRGTLAFMRAIQARAILNERDYCTPDDIKQLAASICTHRLTLTIEGEMKTTKEQIMKEILHTIDVPVENVR
soluble on expression in E. coli: not soluble

MGSDKIHHHHHHMTGLLSKHDFRVALQEAIAGKASAKAAFSQAWMDGTLQRHHFARWAENHYHYVGPFADYLGYIYNNARDEQDGVKDLLLQSMYEFRHLQEGEAMVSHTDLLIRFAQACGTTRERVESPQACNPITRGMQAWCYATAIRESPVVATAALLVGLASQIPQIYARQIVPLRDPRVYGFSEHEVAFFALRITSDGAHAERGYRIVLDGATTPALQQRCLQFVRWGAEMRYAYAQAIYDQYVAPDLGARRVD
soluble on expression in E. coli: not soluble

TLPKPFIWAEPHFMVPKEKQVTICCQGNYGAVEYQLHFEGSLFAVDRPKPPERINKVKFYIPDMNSRMAGQYSCIYRVGELWSEPSNLLDLVVTEMYDTPTLSVHPGPEVISGEKVTFYCRLDTATSMFLLLKEGRSSHVQRGYGKVQAEFPLGPVTTAHRGTYRCFGSYNNHAWSFPSEPVKLLVTG
soluble on expression in E. coli: soluble

MSLSQNASVGIVMPQKIPFEMPLVLENGKTLPRFDLMIETYGELNAEKNNAVLICHALSGNHHVAGRHSAEDKYTGWWDNMVGPGKPIDTERFFVVGLNNLGGCDGSSGPLSINPETGREYGADFPVVTVKDWVKSQAALADYLGIEQWAAIVGGSLGGMQALQWTISYPERVRHALVIASAPKLSTQNIAFNDVARQAILTDPDFNEGHYRSHNTVPARGLRIARMMGHITYLAEDGLGKKFGRDLRSNGYQYGFGVEFEVESYLRYQGDKFVGRFDANTYLLMTKALDYFDPAADFGDSLTRALQNVKAKFFVASFSTDWRFAPERSHELVKALIAAQKSVQYIEVKSAHGHDAFLMEDEAYMRAVAAYMNNVYKECQQEGHHHHHH
soluble on expression in E. coli: soluble

ATVKFKYKGEEKEVDISKIKKVWRVGKMISFTYDEGGGKTGRGAVSEKDAPKELLQMLEKQKK
soluble on expression in E. coli: soluble

ENSLIGLNDHTLVTEDDGRRWVTHEPALVYFHNKYWFNIIAMIRNDGVSYYCNLASPYVMDKEALKYIDYDLDIKVLTNGTKHLLDADEYIAHGQLWNYP
soluble on expression in E. coli: not soluble

SQFVLQDLQDATLGSLLSSLMQHCDPPQRKYPLEKGTPPPWWPTGNEEWWVKLGLPKSQSPPYRKPHDLKKMWKVGVLTAVINHMLPDIAKIKRHVRQSKCLQDKMTAKESAIWLAVLNQEESLIQQ
soluble on expression in E. coli: soluble

MGSDKIHHHHHHMSTTASIENIDYWRHPSLSGIELSQAEFTHFSFDKHVHLDYHLGVVTQGAQQFVNKGSYYQLGQHSLSTLNPDDTHDGQSRDAEGYRVKVMSIPVEYMNEVSQELGLKEHFFSAPMVDDALLYHYFIHLHELLIQGQVTALASESHLFNFIQLLLRRHPSGILKCNSPQGLSTLQLGLVKQRMHDEPWHNTQLETLAGEVNLSKFQFLRQFKQATGMTPHAYLKRVRLELAKKSLCHGTLVADVAQQLGFFDQSHLNKAFKQAFLLSPVQFQRRML
soluble on expression in E. coli: not soluble

MGSDKIHHHHHHMIKAIALLRRKQGLSREQFIAYYETRHAPLIRSLLPGIEDYRRNYVDRTGAFESGIAAIDFDSVTEMRFASRASYDAFLAQAADPEIARLIADDEENVFDRSATRMFVVDETPAALSPDTPSPVLIDELLAERAIRDGLARFARVLDAKAWDALGDVFAADLTFDYGLGEQVGLEALTVNMRRFLDVCGPSQHLIGSIMITVDPGLQSATSRAYVRARHQRAGNSGGPVFDSNGEYVDRWECRAEGWRIVRRDALWQTQSGEAAIIWDGSPAAG
soluble on expression in E. coli: not soluble

MGSDKIHHHHHHMKYPNETSGTADYTVIKGLVTSNGDTGHDSIALDTATQLTAEDVKHFRDYGFSIVGRYLTGTVGTDYKPKNLTSTEIKTILDGGMKFFPIYEDGGYVESYFTASQGQKDAQTAIKTALDLELPAGTVIYFAVDVDFQDGDIDGTVIPYIKAIQNILSQSIYKTGIYGTRNVCLHAERVGIGFSFVANMSYGWSGNLGFKMPDNWAFDQFVEYPIYGIDIDQTASSGLDKGISGVAQTTPEVQTGYLANQLLSVFPDYHNLFGTINWTVSAPEQHLSTPIADYYITLEDKWIATVVDDKTGTLTIQDAKMLNQTADVMKQFESAMSSYDIGDLSGAFNKLAPMIGNGAIKAGLAIRDGMVGFKIAIEGSFESSTSSSSVEGKYTLTLETYIHRDQVPKNAYDPVYQPVTEPNPVFAVDLGKVATTVVIGLLVSSMLPEVGGGAALVELFNVVKTIFAVA
soluble on expression in E. coli: not soluble
